Like-named read-outs stand apart in the source and are kept apart here. No end group written: not given here.
T1: SNORF62 (Homo sapiens, UniProt Q9HB89)
T1 sequence (Q9HB89 1-426): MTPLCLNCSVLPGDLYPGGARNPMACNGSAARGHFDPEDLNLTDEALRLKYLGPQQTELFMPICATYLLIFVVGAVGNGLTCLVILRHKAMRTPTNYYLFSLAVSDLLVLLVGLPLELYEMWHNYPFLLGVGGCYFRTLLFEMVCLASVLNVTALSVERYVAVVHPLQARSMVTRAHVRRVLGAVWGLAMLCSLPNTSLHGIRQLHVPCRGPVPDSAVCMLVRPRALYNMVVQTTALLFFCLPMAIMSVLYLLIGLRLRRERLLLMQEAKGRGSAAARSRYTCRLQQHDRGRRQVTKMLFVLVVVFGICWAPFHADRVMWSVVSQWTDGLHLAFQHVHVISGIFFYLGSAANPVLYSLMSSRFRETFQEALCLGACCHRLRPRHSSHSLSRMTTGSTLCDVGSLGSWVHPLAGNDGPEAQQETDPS

T2: human SNORF62 receptor (human, UniProt Q9HB89 1-426)
T2 sequence: T1 sequence (Q9HB89 1-426)


Assays:
SNORF72 [1] = target: T3, SNORF72 (Homo sapiens, UniProt Q9GZQ4, A395T); test: Intracellular Ca2+ release (FLIPR) in SNORF72-transfected COS-7 cells; assay type: cell-based; details: SNORF72, data not shown
T3 construct: expressed in transfected cells; host or cells: COS-7 (transient, DEAE-dextran)
T3 sequence (Q9GZQ4 whole entry A395T): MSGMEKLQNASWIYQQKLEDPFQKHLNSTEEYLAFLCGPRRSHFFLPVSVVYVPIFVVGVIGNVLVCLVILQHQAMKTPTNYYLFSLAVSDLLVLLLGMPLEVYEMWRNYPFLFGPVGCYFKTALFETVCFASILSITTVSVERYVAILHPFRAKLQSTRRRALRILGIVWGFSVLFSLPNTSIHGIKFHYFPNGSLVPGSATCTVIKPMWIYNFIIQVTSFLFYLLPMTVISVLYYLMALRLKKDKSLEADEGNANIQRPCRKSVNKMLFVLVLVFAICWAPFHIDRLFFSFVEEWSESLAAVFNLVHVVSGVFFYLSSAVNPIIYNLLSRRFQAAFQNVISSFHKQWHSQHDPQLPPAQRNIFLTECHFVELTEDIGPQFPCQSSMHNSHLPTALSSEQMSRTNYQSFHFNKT
Protocol: (§1) A typical protocol for the DEAE-dextran method as applied to COS-7 and HEK293 cells is described as follows. Cells to be used for transfection are split 24 hours prior to the transfection to provide flasks which are 70–80% confluent at the time of transfection. Briefly, 8 μg of receptor DNA plus 8 μg of any additional DNA needed (e.g. Gα protein expression vector, reporter construct, antibiotic resistance marker, mock vector, etc.) are added to 9 ml of complete DMEM plus DEAE-dextran mixture (10 mg/ml in PBS). Cells plated into a T225 flask (sub-confluent) are washed once with PBS and the DNA mixture is added to each flask. The cells are allowed to incubate for 30 minutes at 37° C., 5% CO2. Following the incubation, 36 ml of complete DMEM with 80 μM chloroquine is added to each flask and allowed to incubate an additional 3 hours. The medium is then aspirated and 24 ml of complete medium containing 10% DMSO for exactly 2 minutes and then aspirated. The cells are then washed 2 times with PBS and 30 ml of complete DMEM added to each flask. The cells are then allowed to incubate over night. The next day the cells are harvested by trypsinization and reseeded into 96 well plates.
(§2) Cells expressing the receptor of interest are plated into clear, flat-bottom, black-walled 96-well plates (Costar) at a density of 80,000–150,000 cells per well and allowed to incubate for 48 hr at 5% CO2, 37° C. The growth medium is aspirated and 100 μL of loading medium containing Fluo-3 dye is added to each well. The loading medium contains: 20 mM HEPES (Sigma), 0.1% BSA (Sigma), dye/pluronic acid mixture (e.g. 1 mM Fluo-3/AM (Molecular Probes) and 10% pluronic acid (Molecular Probes) mixed immediately before use), and 2.5 mM probenecid (Sigma)(prepared fresh). The cells are allowed to incubate for about 1 hour at 5% CO2, 37° C.
(§3) The compounds of interest are diluted in wash buffer (Hank's BSS (without phenol red), 20 mM HEPES, 2.5 mM probenecid) to a 4× final concentration and aliquoted into a clear v-bottom plate (Nunc). Following the dye incubation, the cells are washed 4 times to remove excess dye using a Denley plate washer. 100 μL final volume of wash buffer is then added to each cell well. Compounds are added to the cell plates and responses are measured using the FLIPR™ instrument. The data are then collected and analyzed using the FLIPR™ software and Graphpad Prism.
(§4) COS-7 cells were transiently transfected with SNORF62, SNORF72 or vector DNA (mock) as described in Materials and Methods.

SNORF72 [2] = target: T3, SNORF72; test: Displacement of [125I]rat NMU-23 binding in SNORF72-transfected COS-7 membranes; details: for displacement of [125I]rat NMU-23 binding: SNORF72 membranes
Protocol: (§5) The specifics of preparing such cell membranes may in some cases be determined by the nature of the ensuing assay but typically involve harvesting whole cells and disrupting the cell pellet by sonication in ice cold buffer (e.g. 20 mM Tris HCl, mM EDTA, pH 7.4 at 4° C.). The resulting crude cell lysate is cleared of cell debris by low speed centrifugation at 200×g for 5 min at 4° C. The cleared supernatant is then centrifuged at 40,000×g for 20 min at 4° C., and the resulting membrane pellet is washed by suspending in ice cold buffer and repeating the high speed centrifugation step. The final washed membrane pellet is resuspended in assay buffer. Protein concentrations are determined by the method of Bradford (1976) using bovine serum albumin as a standard. The membranes may be used immediately or frozen for later use.
(§6) Radioligand binding assays were performed by diluting membranes prepared from cells expressing the receptor in 50 mM Tris buffer (pH=7.4 at 0° C.) containing 0.1% bovine serum albumin (Sigma), aprotinin (0.005 mg/ml, Boehringer Mannheim) and bestatin (0.1 mM, Sigma) as protease inhibitors. The final protein concentration in the assay was 12–40 μg/ml. […] The bound ligand was separated from free by filtration through GF/B filters presoaked in 0.5% polyethyleneimine (PEI), using a Tomtec (Wallac) vacuum filtration device. After addition of Ready Safe (Beckman) scintillation fluid, bound radioactivity was quantitated using a Trilux (Wallac) scintillation counter (approximately 40% counting efficiency of bound counts). Data was fit to non-linear curves using GraphPad Prism.
(§7) In this manner, agonist or antagonist compounds that bind to the receptor may be identified as they inhibit the binding of the labeled ligand to the membrane protein of cells expressing the said receptor. Non-specific binding was defined as the amount of radioactivity remaining after incubation of membrane protein in the presence of 100 nM of the unlabeled peptide corresponding to the radioligand used. In equilibrium saturation binding assays membrane preparations or intact cells transfected with the receptor are incubated in the presence of increasing concentrations of the labeled compound to determine the binding affinity of the labeled ligand.

SNORF62 [3] = target: T1, SNORF62; test: Intracellular Ca2+ release (FLIPR) in SNORF62-transfected COS-7 cells; assay type: cell-based; parameters: The SNORF62 cDNA codes for a protein of 426 amino acids; expressed in transfected cells; host or cells: COS-7 (transient, DEAE-dextran); details: SNORF62, data not shown
Protocol: as §1, §2, §3, §4

SNORF62 [4] = target: T1, SNORF62; test: Displacement of [125I]rat NMU-23 binding in SNORF62-transfected COS-7 membranes; parameters: The SNORF62 cDNA codes for a protein of 426 amino acids; expressed in transfected cells; host or cells: COS-7 (transient, DEAE-dextran); details: for displacement of [125I]rat NMU-23 binding: SNORF62 membranes
Protocol: as §5, §6, §7

human SNORF62 receptor [5] = target: T2, human SNORF62 receptor; test: displacement of [125I]rat NMU-23, membranes of SNORF62-transfected COS-7 cells
Protocol: as §6, with “µg/ml.” for “μg/ml.”

human SNORF72 receptor [6] = target: T4, human SNORF72 receptor (human, UniProt Q9GZQ4 1-415); test: displacement of [125I]rat NMU-23, membranes of SNORF72-transfected COS-7 cells
T4 sequence (Q9GZQ4 other isoform, or with tags, fused parts or gaps): as the sequence (Q9GZQ4 whole entry A395T) above
Protocol: as §6, with “µg/ml.” for “μg/ml.”

human SNORF62 receptor [7] = target: T2, human SNORF62 receptor; test: displacement of [125I]rat NMU-23 (0.05-0.1 nM), membranes of SNORF62-transfected COS-7 cells, n=2
Protocol: as §6, with “µg/ml.” for “μg/ml.”

human SNORF72 receptor [8] = target: T4, human SNORF72 receptor; test: displacement of [125I]rat NMU-23 (0.05-0.1 nM), membranes of SNORF72-transfected COS-7 cells, n=2
Protocol: as §6, with “µg/ml.” for “μg/ml.”

human SNORF62 receptor [9] = target: T2, human SNORF62 receptor; test: cell-based or functional assay
human SNORF62 receptor [10] = target: T2, human SNORF62 receptor; test: cell-based or functional assay; remark: listed apart in the source
human SNORF72 receptor [11] = target: T4, human SNORF72 receptor; test: cell-based or functional assay

| Molecule | activate the receptors in transfected COS-7 cells (SNORF72 [1]) | displacement of [125I]rat NMU-23 binding (SNORF72 [2]) | activate the receptors in transfected COS-7 cells (SNORF62 [3]) | displacement of [125I]rat NMU-23 binding (SNORF62 [4]) | Ki (human SNORF62 receptor [5]) | Ki (human SNORF72 receptor [6]) | pKi (human SNORF62 receptor [7]) | pKi (human SNORF72 receptor [8]) | further results |
| --- | --- | --- | --- | --- | --- | --- | --- | --- | --- |
| CC[C@H](C)[C@H](NC(=O)[C@H](CO)NC(=O)[C@H](CC(N)=O)NC(=O)[C@H](CC(C)C)NC(=O)[C@H](Cc1ccc(O)cc1)NC(=O)[C@H](CCCCN)NC(=O)[C@H](CCCCN)NC(=O)[C@@H](NC(=O)[C@H](C)NC(=O)[C@H](CCSC)NC(=O)[C@H](CCC(N)=O)NC(=O)[C@H](CCCCN)NC(=O)[C@H](CCCNC(=N)N)NC(=O)[C@H](CC(C)C)NC(=O)[C@H](CCCNC(=N)N)NC(=O)[C@@H](NC(=O)[C@H](Cc1ccc(O)cc1)NC(=O)[C@H](CC(N)=O)NC(=O)[C@H](CC(=O)O)NC(=O)[C@@H](NC(=O)[C@H](Cc1ccccc1)NC(=O)[C@@H](NC(=O)[C@H](C)NC(=O)[C@H](CC(=O)O)NC(=O)[C@H](CO)NC(=O)[C@@H](N)Cc1c[nH]cn1)C(C)C)[C@@H](C)O)[C@@H](C)O)C(C)C)C(=O)N[C@@H](CC(C)C)C(=O)N[C@@H](CC(N)=O)C(N)=O [VIP] | did not | did not displace binding | did not | did not displace binding |  |  |  |  |  |
| CC[C@H](C)[C@H](NC(=O)[C@H](Cc1ccc(O)cc1)NC(=O)[C@H](CCCNC(=N)N)NC(=O)[C@H](CCCNC(=N)N)NC(=O)[C@H](CC(C)C)NC(=O)[C@H](CCC(N)=O)NC(=O)[C@@H](NC(=O)[C@H](CCC(=O)O)NC(=O)[C@H](Cc1ccc(O)cc1)NC(=O)[C@H](CCC(N)=O)NC(=O)[C@H](C)NC(=O)[C@H](CCCNC(=N)N)NC(=O)[C@H](CCC(N)=O)NC(=O)[C@H](CCC(=O)O)NC(=O)[C@H](Cc1c[nH]cn1)NC(=O)[C@@H](NC(=O)[C@H](C)NC(=O)[C@H](Cc1ccc(O)cc1)NC(=O)[C@H](CC(=O)O)NC(=O)CNC(=O)[C@@H]1CCCN1C(=O)[C@H](Cc1ccc(O)cc1)NC(=O)[C@H](CCSC)NC(=O)[C@@H]1CCCN1C(=O)[C@H](CCC(=O)O)NC(=O)[C@H](CC(C)C)NC(=O)[C@@H]1CCCN1C(=O)[C@H](C)N)[C@@H](C)O)[C@@H](C)O)C(=O)N[C@@H](CC(N)=O)C(=O)N[C@H](C(=O)N[C@@H](CC(C)C)C(=O)N[C@H](C(=O)N[C@@H](CCCNC(=N)N)C(=O)N1CCC[C@H]1C(=O)N[C@@H](CCCNC(=N)N)C(=O)N[C@@H](Cc1ccc(O)cc1)C(N)=O)[C@@H](C)O)[C@@H](C)O [rat PP] | did not | did not displace binding | did not | did not displace binding |  |  |  |  | Ki (SNORF72 [2]; binding affinity, SNORF72-transfected COS-7 cells, unit printed in cell (Table 1A), read-out: SNORF72 Avg Ki): > 10 µM; Ki (SNORF72 [2]; displacement of [125I]rat NMU-23 (0.05-0.1 nM), n = 2 (Table 2), read-out: SNORF72 Avg pKi (converted)): > 10 µM; Ki (SNORF62 [4]; binding affinity, SNORF62-transfected COS-7 cells, unit printed in cell (Table 1A), read-out: SNORF62 Avg Ki): > 10 µM; Ki (SNORF62 [4]; displacement of [125I]rat NMU-23 (0.05-0.1 nM), n = 2 (Table 2), read-out: SNORF62 Avg pKi (converted)): > 10 µM |
| frog PP (peptide) |  |  |  |  | > 10 µM | > 10 µM | < 5 | < 5 |  |
| APSEPHHPGDQATQDQLAQYYSDLYQYITFVTRPRF-NH2 (C-terminus assumed) [frog PP] | did not | did not displace binding | did not | did not displace binding |  |  |  |  |  |
| FKVDEEFQGPIVSQNRRYFLFRPRN-NH2 (also called porcine neuromedin U-25) [porcine NMU-25] |  |  |  |  |  | 0.0018 µM | 9 | 8.7 | AVG EC50 (nM), stimulation of Ca++ release in SNORF62-transfected COS-7 cells (FLIPR) (human SNORF62 receptor [9]): 5.2 nM; Avg EC50 (nM), stimulation of Ca2+ release in SNORF62-transfected COS-7 cells (human SNORF62 receptor [10]): 5.2 nM; Avg EC50 (nM), stimulation of Ca2+ release in SNORF72-transfected COS-7 cells (human SNORF72 receptor [11]): 3 nM |
| HSDAVFTDNYTRLRKQMAVKKYLNSILN-NH2 (peptide, UniProt P01282 125-152, looked up, species assumed, ends and bridges not checked) [vasoactive intestinal peptide] |  |  |  |  | > 10 µM | > 10 µM | < 5 | < 5 |  |
| APLEPMYPGDYATHEQRAQYETQLRRYINTLTRPRY (peptide, UniProt P06303 30-65, looked up, also called rat pancreatic polypeptide) [rat PP] |  |  |  |  | > 10 µM | > 10 µM | < 5 | < 5 |  |

From patent US7029857B1, “Processes for obtaining compounds employing SNORF72 receptors” (H. Lundbeck A/S, priority 1999, dated 2006)
